Data: IntAct's records for PubMed 22262837

B1: Kin of IRRE-like protein 1 (Homo sapiens), Q96J84 (parent)
chain: MLSLLVWILTLSDTFSQGTQTRFSQEPADQTVVAGQRAVLPCVLLNYSGIVQWTKDGLALGMGQGLKAWPRYRVVGSADAGQYNLEITDAELSDDASYECQATEAALRSRRAKLTVLIPPEDTRIDGGPVILLQAGTPHNLTCRAFNAKPAATIIWFRDGTQQEGAVASTELLKDGKRETTVSQLLINPTDLDIGRVFTCRSMNEAIPSGKETSIELDVHHPPTVTLSIEPQTVQEGERVVFTCQATANPEILGYRWAKGGFLIEDAHESRYETNVDYSFFTEPVSCEVHNKVGSTNVSTLVNVHFAPRIVVDPKPTTTDIGSDVTLTCVWVGNPPLTLTWTKKDSNMVLSNSNQLLLKSVTQADAGTYTCRAIVPRIGVAEREVPLYVNGPPIISSEAVQYAVRGDGGKVECFIGSTPPPDRIAWAWKENFLEVGTLERYTVERTNSGSGVLSTLTINNVMEADFQTHYNCTAWNSFGPGTAIIQLEEREVLPVGIIAGATIGASILLIFFFIALVFFLYRRRKGSRKDVTLRKLDIKVETVNREPLTMHSDREDDTASVSTATRVMKAIYSSFKDDVDLKQDLRCDTIDTREEYEMKDPTNGYYNVRAHEDRPSSRAVLYADYRAPGPARFDGRPSSRLSHSSGYAQLNTYSRGPASDYGPEPTPPGPAAPAGTDTTSQLSYENYEKFNSHPFPGAAGYPTYRLGYPQAPPSGLERTPYEAYDPIGKYATATRFSYTSQHSDYGQRFQQRMQTHV

Variants of: B1
Conditions: with zo1_human TJP1, Q07157
zo1_human TJP1, Q07157, sequence (Q07157 whole entry): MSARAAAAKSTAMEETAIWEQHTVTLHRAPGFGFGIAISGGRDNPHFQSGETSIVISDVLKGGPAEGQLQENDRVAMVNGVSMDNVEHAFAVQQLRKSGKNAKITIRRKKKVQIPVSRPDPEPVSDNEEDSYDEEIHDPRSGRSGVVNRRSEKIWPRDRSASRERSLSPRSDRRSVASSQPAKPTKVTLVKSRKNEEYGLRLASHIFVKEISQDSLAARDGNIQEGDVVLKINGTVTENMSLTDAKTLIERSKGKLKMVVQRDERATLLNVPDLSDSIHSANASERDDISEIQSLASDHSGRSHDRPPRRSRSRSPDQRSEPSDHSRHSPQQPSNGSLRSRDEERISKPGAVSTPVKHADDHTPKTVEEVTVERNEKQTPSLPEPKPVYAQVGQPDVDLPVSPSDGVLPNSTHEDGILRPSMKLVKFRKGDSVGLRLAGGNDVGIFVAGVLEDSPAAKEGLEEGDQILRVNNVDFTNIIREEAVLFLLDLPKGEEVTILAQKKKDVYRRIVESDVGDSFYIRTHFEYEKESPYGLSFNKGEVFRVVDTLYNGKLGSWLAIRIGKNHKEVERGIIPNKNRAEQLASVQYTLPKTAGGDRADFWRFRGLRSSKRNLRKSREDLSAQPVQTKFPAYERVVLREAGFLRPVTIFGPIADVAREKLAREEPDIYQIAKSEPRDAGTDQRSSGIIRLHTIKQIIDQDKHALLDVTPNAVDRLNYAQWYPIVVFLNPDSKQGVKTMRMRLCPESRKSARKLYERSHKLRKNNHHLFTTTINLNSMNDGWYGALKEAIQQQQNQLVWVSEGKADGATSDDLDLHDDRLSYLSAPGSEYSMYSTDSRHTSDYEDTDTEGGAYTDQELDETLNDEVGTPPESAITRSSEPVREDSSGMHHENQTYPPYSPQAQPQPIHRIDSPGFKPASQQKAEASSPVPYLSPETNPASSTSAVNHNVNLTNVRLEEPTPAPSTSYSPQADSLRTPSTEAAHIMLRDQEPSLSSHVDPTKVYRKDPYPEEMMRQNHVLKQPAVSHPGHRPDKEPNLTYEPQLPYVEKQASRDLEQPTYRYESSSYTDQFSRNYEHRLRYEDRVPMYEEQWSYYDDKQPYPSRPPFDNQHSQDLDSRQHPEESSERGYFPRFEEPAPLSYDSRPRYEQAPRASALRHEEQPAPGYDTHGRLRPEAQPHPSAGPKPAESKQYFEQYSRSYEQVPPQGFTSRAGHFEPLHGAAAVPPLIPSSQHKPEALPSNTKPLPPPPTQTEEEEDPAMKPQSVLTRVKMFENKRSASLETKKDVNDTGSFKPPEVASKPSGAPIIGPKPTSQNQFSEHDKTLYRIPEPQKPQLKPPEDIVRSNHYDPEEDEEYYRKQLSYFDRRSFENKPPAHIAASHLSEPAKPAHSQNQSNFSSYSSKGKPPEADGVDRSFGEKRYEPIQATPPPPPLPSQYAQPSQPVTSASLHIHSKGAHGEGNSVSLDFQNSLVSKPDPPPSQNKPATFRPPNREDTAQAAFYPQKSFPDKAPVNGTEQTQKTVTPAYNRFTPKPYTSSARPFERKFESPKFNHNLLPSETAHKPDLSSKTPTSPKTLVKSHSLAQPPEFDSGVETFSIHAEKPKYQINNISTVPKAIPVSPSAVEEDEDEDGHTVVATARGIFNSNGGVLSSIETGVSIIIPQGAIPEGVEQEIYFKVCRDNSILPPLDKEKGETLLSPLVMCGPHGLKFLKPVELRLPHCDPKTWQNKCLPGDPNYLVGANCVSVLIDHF

effect of a mutation on the interaction | Variant
decreasing interaction strength | Y730A
decreasing interaction strength | K729A
